The record followed here is patent US20220010021A1 (Sanofi, published 2022).

The target in experiment [1] is human FGFR1c + KLB receptor complex on HEK293 iLite FGF21 reporter cells (human, UniProt P11362 22-822; Q86Z14 1-1044). In words: cell-based or functional assay.
Experiment [2] addresses cell surface receptor composed of FGFR1c and co-receptor beta-Klotho (KLB) (human, UniProt P11362 22-822; Q86Z14 1-1044). Description: cell-based or functional assay.

Where a chain is given by its changes, count along the chain named. Names may count otherwise.

Sequence of human FGFR1c + KLB receptor complex on HEK293 iLite FGF21 reporter cells (P11362 22-822, chain 1 of 2): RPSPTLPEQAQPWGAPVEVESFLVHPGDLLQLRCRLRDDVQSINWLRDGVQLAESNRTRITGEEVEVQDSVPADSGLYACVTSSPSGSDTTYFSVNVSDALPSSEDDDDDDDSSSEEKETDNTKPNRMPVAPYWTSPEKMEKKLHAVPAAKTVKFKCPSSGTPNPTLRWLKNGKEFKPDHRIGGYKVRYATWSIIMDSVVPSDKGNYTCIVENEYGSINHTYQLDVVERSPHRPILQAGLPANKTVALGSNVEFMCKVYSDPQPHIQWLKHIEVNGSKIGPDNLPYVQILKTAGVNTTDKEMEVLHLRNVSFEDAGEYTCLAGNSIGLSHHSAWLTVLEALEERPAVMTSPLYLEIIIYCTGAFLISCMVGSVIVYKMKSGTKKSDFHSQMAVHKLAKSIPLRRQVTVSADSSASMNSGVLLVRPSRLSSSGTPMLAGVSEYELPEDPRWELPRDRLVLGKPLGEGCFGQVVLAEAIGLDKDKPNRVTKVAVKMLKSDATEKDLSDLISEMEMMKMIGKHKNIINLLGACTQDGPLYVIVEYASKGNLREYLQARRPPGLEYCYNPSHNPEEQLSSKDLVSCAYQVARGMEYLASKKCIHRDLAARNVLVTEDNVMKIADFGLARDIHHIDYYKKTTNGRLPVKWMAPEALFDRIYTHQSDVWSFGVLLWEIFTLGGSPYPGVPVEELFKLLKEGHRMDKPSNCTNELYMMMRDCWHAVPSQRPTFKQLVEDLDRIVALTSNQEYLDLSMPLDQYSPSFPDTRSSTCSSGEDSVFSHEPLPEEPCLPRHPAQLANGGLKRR
Sequence of human FGFR1c + KLB receptor complex on HEK293 iLite FGF21 reporter cells (Q86Z14 whole entry, chain 2 of 2): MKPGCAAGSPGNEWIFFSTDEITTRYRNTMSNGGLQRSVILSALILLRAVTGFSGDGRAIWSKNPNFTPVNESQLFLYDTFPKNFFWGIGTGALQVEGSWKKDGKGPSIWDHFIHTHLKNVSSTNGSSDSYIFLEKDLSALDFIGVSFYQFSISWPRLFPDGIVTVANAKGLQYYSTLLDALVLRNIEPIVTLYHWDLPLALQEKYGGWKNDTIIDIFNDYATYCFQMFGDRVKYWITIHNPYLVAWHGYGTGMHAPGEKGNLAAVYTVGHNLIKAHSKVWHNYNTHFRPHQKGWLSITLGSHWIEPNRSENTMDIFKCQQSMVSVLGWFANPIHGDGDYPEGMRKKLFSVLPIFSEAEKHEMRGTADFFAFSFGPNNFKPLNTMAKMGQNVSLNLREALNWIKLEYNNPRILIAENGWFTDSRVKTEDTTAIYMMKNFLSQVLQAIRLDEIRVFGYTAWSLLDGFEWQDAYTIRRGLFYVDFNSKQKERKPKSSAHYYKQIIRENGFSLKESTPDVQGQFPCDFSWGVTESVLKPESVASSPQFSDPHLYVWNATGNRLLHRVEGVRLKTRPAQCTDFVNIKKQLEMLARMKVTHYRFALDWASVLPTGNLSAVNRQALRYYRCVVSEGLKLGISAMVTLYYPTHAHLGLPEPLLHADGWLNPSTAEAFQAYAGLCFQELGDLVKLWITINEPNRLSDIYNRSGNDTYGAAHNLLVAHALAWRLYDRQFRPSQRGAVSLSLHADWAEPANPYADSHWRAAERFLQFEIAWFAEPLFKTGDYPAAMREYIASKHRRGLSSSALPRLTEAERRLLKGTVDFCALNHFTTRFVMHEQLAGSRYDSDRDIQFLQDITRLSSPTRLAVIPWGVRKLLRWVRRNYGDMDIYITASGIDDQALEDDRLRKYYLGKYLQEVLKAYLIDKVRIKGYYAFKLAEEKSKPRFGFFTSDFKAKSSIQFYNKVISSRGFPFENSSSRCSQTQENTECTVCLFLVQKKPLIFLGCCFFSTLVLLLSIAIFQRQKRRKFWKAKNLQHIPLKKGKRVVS
Sequence of cell surface receptor composed of FGFR1c and co-receptor beta-Klotho (KLB) (P11362 22-822, chain 1 of 2): as the sequence (P11362 22-822, chain 1 of 2) above
Sequence of cell surface receptor composed of FGFR1c and co-receptor beta-Klotho (KLB) (Q86Z14 whole entry, chain 2 of 2): as the sequence (Q86Z14 whole entry, chain 2 of 2) above

B1: Ab0365 (antibody, IgG4, V domains shown)
VH: QVTLKESGPVLVKPTETLTLTCTVSGFSLNNARVGVSWIRQPPGKALEWLAHIFSNDEKSYSTSLKSRLTISKDTSKSQVVLTMTNMDPVDTATYYCARSVVTGGYYYEGMDVWGQGTTVTVSS
VL: SYVLTQPPSVSVAPGQTARITCGGANIGSESVHWYQQKPGQAPVLVVYTESDRPSGIPERFSGSNSGNTATLTISRVEAGDEADYYCQVWAGSSDHVVFGGGTKLTVLG
In general, EC50 refers to the midpoint of the concentration-response curve. The Emax is the greatest response seen or fitted, relative to the assay's reference. Regarding B1, in experiment [1], the EC50 came out at 0.85 nmol/L and the Emax was determined as 583%.

B2: Ab0464 (antibody, IgG4, V domains shown)
VH: B1 VH with N30T, N31Y
VL: B1 VL with A25S, T49E, A91E, S93E
On to B2, for which, in experiment [1], the EC50 came to 0.02 nmol/L and the Emax was 910%.

B3: Ab0459 (antibody, IgG4, V domains shown)
VH: B1 VH with N30S, N31Y
VL: B1 VL with A25S, T49S, E50A, A91E, S93E
B3: in experiment [1], the EC50 was 0.04 nmol/L and the Emax is 1110%.

B4: Ab0457 (antibody, IgG4, V domains shown)
VH: B1 VH with N30S
VL: B1 VL with A25S, T49S, E50A, A91E, S93E
Turning to B4, in experiment [1], the EC50 is 0.02 nmol/L and the Emax worked out at 1520%.

B5: Ab0458 (antibody, IgG4, V domains shown)
VH: B1 VH with N30T
VL: B1 VL with A25S, T49S, E50A, A91E, S93E
Consider B5, for which, in experiment [1], the EC50 is 0.02 nmol/L and the Emax came out at 1430%.

B6: Ab0456 (antibody, IgG4, V domains shown)
VH: B1 VH with N30T, N31Y
VL: B1 VL with A25S, T49S, A91E, S93E
In the case of B6, in experiment [1], the EC50 came to 0.07 nmol/L and the Emax is 1080%.

B7: 16H7 light chain variant D49Y (antibody, IgG4, V domains shown)
VH: not shown
VL: B1 VL with A25N, T49Y, E50D, A91D, S93N
Turning to B7, in experiment [2], the “Mean E max, Luciferase reporter gene assay” value (from here on “Mean E max”) is 99% and the “Mean EC50, Luciferase reporter gene assay” value (“Mean EC50” for short) worked out at 0.151 nM.

B8: 16H7 light chain variant D95N (antibody, IgG4, V domains shown)
VH: not shown
VL: B1 VL with A25N, T49D, E50D, A91D, S93N, D95N
Take B8: in experiment [2], the “Mean E max” value stood at 78% and the “Mean EC50” value was 1.03 nM.

B9: Ab0461 (antibody, IgG4, V domains shown)
VH: B1 VH with N30S
VL: B1 VL with A25S, T49E, A91E, S93E
Take B9: in experiment [1], the EC50 came to 0.02 nmol/L and the maximum response (Emax) came out at 1390%.

B10: 16H7 light chain variant D95V (antibody, IgG4, V domains shown)
VH: not shown
VL: B1 VL with A25N, T49D, E50D, A91D, S93N, D95V
For the molecule B10, the “Mean E max” value in experiment [2] was 3%.

B11: Ab0453 (antibody, IgG4, V domains shown)
VH: B1 VH with N30S
VL: B1 VL with A25S, T49S, A91E, S93E
Turning to B11, in experiment [1], the EC50 was determined as 0.03 nmol/L and the Emax worked out at 1400%.

B12: Ab0455 (antibody, IgG4, V domains shown)
VH: B1 VH with N30S, N31Y
VL: B1 VL with A25S, T49S, A91E, S93E
On to B12, for which, in experiment [1], the EC50 turned out to be 0.07 nmol/L and the maximum response (Emax) is 1020%.

B13: 16H7 light chain variant H33R (antibody, IgG4, V domains shown)
VH: not shown
VL: B1 VL with A25N, H33R, T49D, E50D, A91D, S93N
As to B13, in experiment [2], the “Mean E max” value came to 68% and the “Mean EC50” value worked out at 2.19 nM.

B14: 16H7 light chain variant H33P (antibody, IgG4, V domains shown)
VH: not shown
VL: B1 VL with A25N, H33P, T49D, E50D, A91D, S93N
For the molecule B14, in experiment [2], the “Mean E max” value came to 90% and the “Mean EC50” value was 0.253 nM.

B15: 16H7 light chain variant D95R (antibody, IgG4, V domains shown)
VH: not shown
VL: B1 VL with A25N, T49D, E50D, A91D, S93N, D95R
Consider B15, for which the “Mean E max” value in experiment [2] worked out at 4%.

B16: Ab0454 (antibody, IgG4, V domains shown)
VH: B1 VH with N30T
VL: B1 VL with A25S, T49S, A91E, S93E
In the case of B16, in experiment [1], the EC50 stood at 0.03 nmol/L and the Emax stood at 1390%.

B17: 16H7 light chain variant H33K (antibody, IgG4, V domains shown)
VH: not shown
VL: B1 VL with A25N, H33K, T49D, E50D, A91D, S93N
On to B17, for which, in experiment [2], the “Mean E max” value turned out to be 96% and the “Mean EC50” value came to 0.174 nM.

B18: 16H7 light chain variant D49H (antibody, IgG4, V domains shown)
VH: not shown
VL: B1 VL with A25N, T49H, E50D, A91D, S93N
In the case of B18, in experiment [2], the “Mean E max” value was determined as 90% and the “Mean EC50” value stood at 0.183 nM.

B19: 16H7 light chain variant H33W (antibody, IgG4, V domains shown)
VH: not shown
VL: B1 VL with A25N, H33W, T49D, E50D, A91D, S93N
As to B19, in experiment [2], the “Mean E max” value is 80% and the “Mean EC50” value is 0.666 nM.

B20: 16H7 light chain variant D49N (antibody, IgG4, V domains shown)
VH: not shown
VL: B1 VL with A25N, T49N, E50D, A91D, S93N
B20: in experiment [2], the “Mean E max” value came to 108% and the “Mean EC50” value is 0.19 nM.

B21: 16H7 light chain variant D95G (antibody, IgG4, V domains shown)
VH: not shown
VL: B1 VL with A25N, T49D, E50D, A91D, S93N, D95G
Take B21: in experiment [2], the “Mean E max” value was 47% and the “Mean EC50” value was found to be 6.56 nM.

B22: Ab0423 (antibody, IgG4, V domains shown)
VH: B1 VH
VL: B1 VL with A25S, T49S, E50S, A91E, S93A
For B22, in experiment [1], the EC50 came to 0.05 nmol/L and the Emax came out at 1510%.

B23: 16H7 light chain variant D95P (antibody, IgG4, V domains shown)
VH: not shown
VL: B1 VL with A25N, T49D, E50D, A91D, S93N, D95P
Turning to B23, the “Mean E max” value in experiment [2] is 4%.

B24: Ab0460 (antibody, IgG4, V domains shown)
VH: B1 VH with N30T, N31Y
VL: B1 VL with A25S, T49S, E50A, A91E, S93E
For the molecule B24, in experiment [1], the EC50 was found to be 0.05 nmol/L and the Emax turned out to be 1050%.

B25: 16H7 light chain variant D95C (antibody, IgG4, V domains shown)
VH: not shown
VL: B1 VL with A25N, T49D, E50D, A91D, S93N, D95C
Consider B25, for which, in experiment [2], the “Mean E max” value amounted to 4%.

B26: Ab0462 (antibody, IgG4, V domains shown)
VH: B1 VH with N30T
VL: B1 VL with A25S, T49E, A91E, S93E
Regarding B26, in experiment [1], the EC50 stood at 0.03 nmol/L and the Emax is 1340%.

B27: 16H7 light chain variant D95E (antibody, IgG4, V domains shown)
VH: not shown
VL: B1 VL with A25N, T49D, E50D, A91D, S93N, D95E
Consider B27, for which, in experiment [2], the “Mean E max” value turned out to be 44% and the “Mean EC50” value was found to be 8.04 nM.

B28: Ab0424 (antibody, IgG4, V domains shown)
VH: B1 VH
VL: B1 VL with A25S, T49S, E50S, A91H, S93A
On to B28, for which, in experiment [1], the EC50 was 0.07 nmol/L and the Emax came out at 1390%.

B29: 16H7 light chain variant D95F (antibody, IgG4, V domains shown)
VH: not shown
VL: B1 VL with A25N, T49D, E50D, A91D, S93N, D95F
Take B29: the “Mean E max” value in experiment [2] is -1%.

B30: Ab0463 (antibody, IgG4, V domains shown)
VH: B1 VH with N30S, N31Y
VL: B1 VL with A25S, T49E, A91E, S93E
For B30, in experiment [1], the EC50 worked out at 0.05 nmol/L and the Emax came out at 951%.

B31: 16H7 light chain variant V32P (antibody, IgG4, V domains shown)
VH: not shown
VL: B1 VL with A25N, V32P, T49D, E50D, A91D, S93N
As for B31, in experiment [2], the “Mean E max” value is 85% and the “Mean EC50” value is 0.164 nM.

B32: 16H7 light chain variant D95W (antibody, IgG4, V domains shown)
VH: not shown
VL: B1 VL with A25N, T49D, E50D, A91D, S93N, D95W
Turning to B32, in experiment [2], the “Mean E max” value was 5%.

B33: 16H7 light chain variant D49A (antibody, IgG4, V domains shown)
VH: not shown
VL: B1 VL with A25N, T49A, E50D, A91D, S93N
Consider B33, for which, in experiment [2], the “Mean E max” value amounted to 100% and the “Mean EC50” value was 0.106 nM.

B34: 16H7 light chain variant S94K (antibody, IgG4, V domains shown)
VH: not shown
VL: B1 VL with A25N, T49D, E50D, A91D, S93N, S94K
B34: in experiment [2], the “Mean E max” value was determined as 104% and the “Mean EC50” value was 0.185 nM.

B35: 16H7 light chain variant D95S (antibody, IgG4, V domains shown)
VH: not shown
VL: B1 VL with A25N, T49D, E50D, A91D, S93N, D95S
On to B35, for which, in experiment [2], the “Mean E max” value was 37%.

B36: 16H7 light chain variant D50K (antibody, IgG4, V domains shown)
VH: not shown
VL: B1 VL with A25N, T49D, E50K, A91D, S93N
On to B36, for which the “Mean E max” value in experiment [2] was found to be 109%.

B37: Ab0428 (antibody, human IgG1, lambda)
heavy: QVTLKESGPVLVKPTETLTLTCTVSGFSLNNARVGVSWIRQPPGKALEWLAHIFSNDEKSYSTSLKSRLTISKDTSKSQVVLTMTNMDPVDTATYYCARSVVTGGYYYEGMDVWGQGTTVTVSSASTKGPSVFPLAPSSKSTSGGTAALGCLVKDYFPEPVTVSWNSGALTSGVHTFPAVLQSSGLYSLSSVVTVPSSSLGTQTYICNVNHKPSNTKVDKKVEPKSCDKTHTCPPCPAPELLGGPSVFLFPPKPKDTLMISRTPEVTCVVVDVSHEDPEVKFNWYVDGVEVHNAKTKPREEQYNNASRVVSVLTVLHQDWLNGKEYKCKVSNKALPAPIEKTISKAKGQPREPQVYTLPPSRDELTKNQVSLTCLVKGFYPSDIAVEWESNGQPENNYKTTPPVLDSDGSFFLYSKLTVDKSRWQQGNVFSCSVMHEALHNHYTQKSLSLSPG
light: SYVLTQPPSVSVAPGQTARITCGGSNIGSESVHWYQQKPGQAPVLVVYSESDRPSGIPERFSGSNSGNTATLTISRVEAGDEADYYCQVWEGESDHVVFGGGTKLTVLGQPKANPTVTLFPPSSEELQANKATLVCLISDFYPGAVTVAWKADGSPVKAGVETTKPSKQSNNKYAASSYLSLTPEQWKSHRSYSCQVTHEGSTVEKTVAPTECS
As for B37, in experiment [1], the EC50 is 0.03 nmol/L and the Emax came to 1280%.

B38: Ab0429 (antibody, human IgG1, lambda)
heavy: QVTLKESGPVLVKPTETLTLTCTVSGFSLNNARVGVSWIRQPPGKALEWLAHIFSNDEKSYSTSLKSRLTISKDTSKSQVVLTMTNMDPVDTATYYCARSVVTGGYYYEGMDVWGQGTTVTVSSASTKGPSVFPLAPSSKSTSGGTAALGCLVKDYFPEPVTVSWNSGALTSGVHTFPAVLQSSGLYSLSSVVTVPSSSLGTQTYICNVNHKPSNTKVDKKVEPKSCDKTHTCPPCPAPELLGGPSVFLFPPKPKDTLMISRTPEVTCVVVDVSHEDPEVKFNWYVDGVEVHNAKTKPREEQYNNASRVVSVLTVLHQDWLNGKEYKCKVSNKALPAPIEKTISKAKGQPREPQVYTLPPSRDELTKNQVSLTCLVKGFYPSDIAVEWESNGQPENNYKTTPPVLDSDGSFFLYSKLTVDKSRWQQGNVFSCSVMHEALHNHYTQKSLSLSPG
light: B37 light with E50A
In the case of B38, in experiment [1], the EC50 is 0.04 nmol/L and the Emax turned out to be 1290%.

B39: Ab0430 (antibody, human IgG1, lambda)
heavy: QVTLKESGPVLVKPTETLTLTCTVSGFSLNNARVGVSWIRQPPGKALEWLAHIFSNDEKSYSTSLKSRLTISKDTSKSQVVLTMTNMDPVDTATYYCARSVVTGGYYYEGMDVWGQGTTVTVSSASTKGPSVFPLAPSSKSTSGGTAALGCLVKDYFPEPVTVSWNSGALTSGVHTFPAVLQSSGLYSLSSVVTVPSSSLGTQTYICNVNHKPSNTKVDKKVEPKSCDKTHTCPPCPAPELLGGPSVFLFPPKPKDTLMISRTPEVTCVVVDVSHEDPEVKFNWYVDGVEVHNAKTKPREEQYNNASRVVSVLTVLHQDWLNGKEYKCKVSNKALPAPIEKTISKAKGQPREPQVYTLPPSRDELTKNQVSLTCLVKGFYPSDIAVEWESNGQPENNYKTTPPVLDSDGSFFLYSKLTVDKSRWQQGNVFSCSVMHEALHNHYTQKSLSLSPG
light: B37 light with S49E
With B39, in experiment [1], the EC50 amounted to 0.03 nmol/L and the Emax stood at 1100%.
